Results published in patent CN113121686A (MABWELL SHANGHAI BIOTECHNOLOGY CO LTD, dated 2021).
Substitutions are numbered along the chain they refer to.

B1: 嵌合抗体Ch182 (antibody, human IgG1, V domains shown)
VH: EVQLQQSGAELVKPGASVKLSCTVSGFNIKDIYMHWLKQRPEQGLEWIGRIDPANGNTKYDPKFQDKATMIADTSSNTAYLQLSSLTSEDTAVYYCASGQLGPLGFDYWGQGTTLTVSS
VL: DIQMTQTTSSLSASLGDRVTISCRASQDISNYLNWYQQKPDGTVKLLIYYTSRLHSGVPSRFSGSGSGTDYSLTISNLEQEDIATYFCQQGNTLPYTFGGGTKLEIK
B2: 182鼠抗体 (antibody, V domains shown)
VH: B1 VH
VL: B1 VL
notes: Tested as hybridoma supernatant or as purified mouse antibody; also called m182
B3: H182-MUT4 (antibody, human IgG1, kappa, V domains shown)
VH: EVQLVQSGAEVKKPGATVKISCKVSGFNIKDIYMHWVQQAPGKGLEWMGRIDPANANTKYDPKFQDRVTITADTSTNTAYMELSSLRSEDTAVYYCASGQLGPLGFDYWGQGTTVTVSS
VL: DIQMTQSPSSLSASVGDRVTITCRASQDISNYLNWYQQKPGKAPKLLLYYTSRLHSGVPSRFSGSGSGTDYTLTISSLQPEDFATYFCQQGAGRPYTFGGGTKVEIKR
notes: also called h182-LCDR3-4+h182-HCDR2-3
B4: h182 (antibody, V domains shown)
VH: B3 VH with A56G
VL: B3 VL with A92N, G93T, R94L
B5: 182-7 (antibody, V domains shown)
VH: B3 VH with A56G, N77D, S98T
VL: B3 VL with A92N, G93T, R94L
B6: 182-1 (antibody, V domains shown)
VH: B3 VH with A56G, N77D, S98T
VL: DIQMTQTTSSLSASLGDRVTISCRASQDISNYLNWYQQKPDGTVKLLIYYTSRLHSGVPSRFSGSGSGTDYSLTISNLEQEDIATYFCQQGNTLPYTFGGGTKLEIKR
B7: 182-2 (antibody, V domains shown)
VH: B3 VH with A56G
VL: B6 VL
B8: 182-3 (antibody, human IgG1, V domains shown)
VH: B1 VH
VL: B3 VL with F87Y, A92N, G93T, R94L
notes: also called h182L1 + Ch182H
B9: 182-5 (antibody, V domains shown)
VH: B3 VH with A56G
VL: B3 VL with F87Y, A92N, G93T, R94L
B10: 182-4 (antibody, V domains shown)
VH: B3 VH with A56G, N77D, S98T
VL: B3 VL with F87Y, A92N, G93T, R94L
B11: 182-6 (antibody, human IgG1, V domains shown)
VH: B1 VH
VL: B3 VL with A92N, G93T, R94L
notes: also called h182L2 + Ch182H

What was measured:
人PD-L1-His重组蛋白 [1] = target: T1, 人PD-L1-His重组蛋白 (human, UniProt Q9NZQ7 19-238); experiment: BLI (Fortebio Octet QKe), antibody captured on AHC probe, human PD-L1-His 100 nM, 1:1 Langmuir fit
T1 construct: range 19-238; also called 人PD-L1胞外区结构域重组蛋白; 重组人PD-L1; not shown: His tag
T1 sequence (Q9NZQ7 19-238 limits assumed): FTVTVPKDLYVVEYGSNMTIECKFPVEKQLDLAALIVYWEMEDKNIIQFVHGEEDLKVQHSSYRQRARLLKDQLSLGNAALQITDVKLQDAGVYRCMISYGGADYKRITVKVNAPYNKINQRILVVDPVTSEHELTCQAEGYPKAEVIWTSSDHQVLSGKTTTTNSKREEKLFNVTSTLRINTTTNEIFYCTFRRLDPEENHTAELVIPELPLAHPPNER

人PD-L1-His重组蛋白 [2] = target: T1, 人PD-L1-His重组蛋白; experiment: BLI (Fortebio Octet QKe), antibody captured on AHC probe, human PD-L1-His 50 nM and 20 nM, 1:1 Langmuir fit
PD-L2-hFc = target: T2, PD-L2-hFc (human, UniProt Q9BQ51 20-220); experiment: ELISA; protein coated at 2 ug/mL
T2 construct: range 20-220; not shown: human Fc (hFc)
T2 sequence (looked up): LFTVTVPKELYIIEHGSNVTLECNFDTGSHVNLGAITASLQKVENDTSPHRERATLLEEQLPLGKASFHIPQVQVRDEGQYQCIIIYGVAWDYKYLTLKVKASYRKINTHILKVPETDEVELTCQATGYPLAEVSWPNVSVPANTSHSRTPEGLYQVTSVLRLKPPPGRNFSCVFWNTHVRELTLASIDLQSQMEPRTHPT

重组人CD28 = target: T3, 重组人CD28 (human, UniProt P10747 19-152); experiment: ELISA; protein coated at 2 ug/mL
T3 construct: Bought protein; also called Cat:11524-HCCH
T3 sequence (P10747 19-152 limits assumed): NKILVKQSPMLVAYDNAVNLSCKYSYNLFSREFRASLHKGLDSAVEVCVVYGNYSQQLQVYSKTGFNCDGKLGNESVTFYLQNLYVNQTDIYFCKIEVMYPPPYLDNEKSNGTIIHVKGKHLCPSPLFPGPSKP

CTLA4-His = target: T4, CTLA4-His (human, UniProt P16410 36-162); experiment: ELISA; protein coated at 2 ug/mL
T4 construct: Bought protein; also called Cat:11159-H08H; not shown: His tag
T4 sequence (looked up): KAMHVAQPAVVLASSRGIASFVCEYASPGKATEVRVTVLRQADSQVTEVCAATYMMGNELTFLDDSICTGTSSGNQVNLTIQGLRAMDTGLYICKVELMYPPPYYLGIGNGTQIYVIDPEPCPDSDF

B7H3-His = target: T5, B7H3-His (human, UniProt Q5ZPR3 29-239); experiment: ELISA; protein coated at 2 ug/mL
T5 construct: range 29-239; not shown: His tag
T5 sequence (looked up): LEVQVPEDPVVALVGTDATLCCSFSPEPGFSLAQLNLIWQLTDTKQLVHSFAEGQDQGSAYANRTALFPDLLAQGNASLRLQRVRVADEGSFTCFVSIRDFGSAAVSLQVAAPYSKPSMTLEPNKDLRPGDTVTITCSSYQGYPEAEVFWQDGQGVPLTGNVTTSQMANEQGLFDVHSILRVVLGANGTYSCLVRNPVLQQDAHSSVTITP

人PD-L1全长(细胞表面表达) [3] = target: T6, 人PD-L1全长(细胞表面表达) (human, UniProt Q9NZQ7 19-290); experiment: cell-based or functional assay
人PD-L1全长(细胞表面表达) [4] = target: T6, 人PD-L1全长(细胞表面表达); experiment: flow cytometry (MFI) on CHO-PD-L1-CD3L cells, antibody titrated from 30 ug/mL
人PD-L1/mFc重组蛋白 = target: T7, 人PD-L1/mFc重组蛋白 (human, UniProt Q9NZQ7 19-238); experiment: competition ELISA; PD-1-hFc coated, PD-L1-mFc 1 ug/mL, antibody titrated from 4.5 ug/mL
T7 construct: range 19-238; not shown: mouse Fc (mFc)
T7 sequence (Q9NZQ7 19-238 limits assumed): as the sequence (Q9NZQ7 19-238 limits assumed) above

人PD-L1-His重组蛋白 [5] = target: T1, 人PD-L1-His重组蛋白; experiment: BLI (Fortebio Octet QKe), antibody captured on AHC probe, human PD-L1-His 60 nM, 1:1 Langmuir fit

Row | Binder | Kd (人PD-L1-His重组蛋白 [1]) | other results
1 | B1 | 2.14 nM | Kd (人PD-L1-His重组蛋白 [2]): ~2.02 nM
2 | B2 | – | binding result (PD-L2-hFc): no binding (tested: 1ug/ml); binding result (重组人CD28): no binding (tested: 1ug/ml); binding result (CTLA4-His): no binding (tested: 1ug/ml); binding result (B7H3-His): no binding (tested: 1ug/ml)
3 | B3 | – | ADCC EC50 (MDA-MB-231 target cells, NK92 effector cells, calcein release) (人PD-L1全长(细胞表面表达) [3]): 0.96 ng/mL; EC50 (人PD-L1全长(细胞表面表达) [4]): 0.658 nM; IC50 (人PD-L1/mFc重组蛋白): 6.24 nM; Kd (人PD-L1-His重组蛋白 [5]): 0.465 nM
4 | B4 | 3.64 nM | –
5 | B5 | 5.68 nM | –
6 | B6 | 5.82 nM | –
7 | B7 | 1.93 nM | –
8 | B8 | 4.77 nM | –
9 | B9 | 3.43 nM | –
10 | B10 | 8.19 nM | –
11 | B11 | 4.64 nM | –
